Laboratory results taken from PMC12412103, “An Amyloidogenic Fragment of the Spike Protein from SARS-CoV‑2 Virus Stimulates the Aggregation and Toxicity of Parkinson’s Disease Protein Alpha-Synuclein” (ACS Chemical Neuroscience, 2025).
Values joined by “and” are separate entries in the source; they are usually repeats but may differ in a detail not shown here. Equal entries are not always repeated.

Key:
[1] = molecular target: α-synuclein (αSyn), wild type (human, UniProt P37840 1-140); assay: ITC; settings: both partners purified
dynamic light scattering = molecular target: the molecule itself; assay: dynamic light scattering

B1: Spike 194–203 (S194), fibrillogenic fragment of the Spike protein of SARS-CoV-2 (peptide)
peptide: FKNIDGYFKI
notes: also called mS194 (monomer); fS194 (fibrils)
dH [1]: -200 kcal/mol and -150 kcal/mol | binding result (dynamic light scattering): binds
